Experimental data from patent US20070293656A1, “COLLAGEN BINDING PEPTIDES” (Epix Pharmaceuticals, Inc., priority 2005, published 2007).
Bridge positions count the residues as written; N and C are the ends. Square brackets hold non-standard residues; d marks the D form. Primed or numbered codes have the meaning given here. Side chains are listed from the residue outwards. Ends that are not written are not given here. * marks the point of attachment. Glu‑DTPA‑Gd = N-terminal Glu-DTPA-Gd chelate (gadolinium DTPA complex on glutamic acid); Tyr(3-I) = N[C@@H](Cc1ccc(O)c(I)c1)C(=O)O; Glu‑DTPA‑Gd‑PEG(2O) = not defined here; Gd^T = not defined here; Gd^T″ = GdDTPA-thiourea; Cbz = O=C(OCc1ccccc1)*; AEEA = NCCOCCOCC(=O)O

B1: Comp ID 883 (peptide)
peptide: GQWHCTTDFPHHYCLYG
modifications: not fully specified; Gd^T-GQWHCTTD-F(4-CN)-PHHYCLYG
B2: Comp ID 855 (peptide)
peptide: GQWHCTTRFPHHYCAYG
modifications: not fully specified; Gd^T-GQWHCTTRFPHHYCAYG
B3: SEQ ID NO: 78 (peptide)
peptide: TWACDLDEYGGWQCYTG
modifications: disulfide 4-14 (inferred)
B4: Comp ID 940 (peptide)
peptide: Cbz-GQWHCTK(Gd^T″)RFPHHYCLYG
modifications: disulfide 5-14 (inferred); not fully specified (C-terminus); printed as cbz-GQWHCT-K(Gd^T)-RFPHHYCLYG
B5: SEQ ID NO: 108 (peptide)
peptide: YHACYQAGCYIY
modifications: disulfide 4-9 (inferred)
B6: SEQ ID NO: 113 (peptide)
peptide: FSECVWVNAYQCEYF
modifications: disulfide 4-12 (inferred)
B7: SEQ ID NO: 39 (peptide)
peptide: GWQCSGDASVWNCDWI
modifications: disulfide 4-13 (inferred)
B8: SEQ ID NO: 8 (peptide)
peptide: GWQCFGASDWHCTWV
modifications: disulfide 4-12 (inferred)
B9: SEQ ID NO: 195 (peptide)
peptide: {Glu‑DTPA‑Gd}-WWGCRQGTGEHWSHCMWF-{AEEA-Glu‑DTPA‑Gd}
modifications: cysteine pairing not given here; also: Gd chelated by DTPA at each end
B10: Comp ID 824 (peptide)
peptide: PWTCSGDEYAWHCNYE
modifications: Gd^G-PWTCSGDEYAWHCNYe
B11: SEQ ID NO: 77 (peptide)
peptide: GWQCQGTDSLDWKCLYM
modifications: disulfide 4-14 (inferred)
B12: Compound ID 1023 (peptide)
peptide: {Glu‑DTPA‑Gd}-GGDWTCVGDHKTWKCNFH-NH2
modifications: disulfide 6-15 (inferred)
B13: Comp ID 966 (peptide)
peptide: {Gd^T″}-GK([Gly-Gd^T″])WHCTTLFPHHVCLYG
modifications: disulfide 5-14 (inferred); not fully specified (C-terminus); printed as Gd^T-G-K(G.Gd^T)-WHCTTLFPHHVCLYG
B14: Comp ID 904 (peptide)
peptide: GQWHCTTRFPHHXCLYG
modifications: not fully specified; Gd^T-GQWHCTTRFPHH-1-nal-CLYG
B15: Comp ID 840 (peptide)
peptide: GQWACSGDEYTWHCNYE
modifications: not fully specified; Gd^T-GQWACSGDEYTWHCNYE
B16: Comp ID 829 (peptide)
peptide: {Gd^T″}-DWTCS[dY]DEYTWHCNYE
modifications: disulfide 4-13 (inferred)
B17: SEQ ID NO: 36 (peptide)
peptide: SWSCGGDHNAWKCQYS
modifications: disulfide 4-13 (inferred)
B18: Comp ID 902 (peptide)
peptide: GQWHCTTRFPHHRCLYG
modifications: not fully specified; Gd^T-GQWHCTTRFPHHrCLYG
B19: Comp ID 847 (peptide)
peptide: {Gd^T}-DWTCS[dL]DEYTWHCNYE
modifications: disulfide 4-13 (inferred); not fully specified (C-terminus); reading uncertain
B20: SEQ ID NO: 3 (peptide)
peptide: PWWCHEMPSMCFGF
modifications: disulfide 4-11 (inferred)
B21: Comp ID 836 (peptide)
peptide: {Gd^T}-DWTCS[dS]DEYTWHCNYE
modifications: disulfide 4-13 (inferred); not fully specified (C-terminus); printed as Gd^T-DWTCSsDEYTWHCNYE; reading uncertain
B22: SEQ ID NO: 37 (peptide)
peptide: LWNCHGTDANWKCVLN
modifications: disulfide 4-13 (inferred)
B23: SEQ ID NO: 38 (peptide)
peptide: GWSCHGDAADWPCQWS
modifications: disulfide 4-13 (inferred)
B24: SEQ ID NO: 67 (peptide)
peptide: GWSCHSMDMQWHCDFS
modifications: disulfide 4-13 (inferred)
B25: Comp ID 905 (peptide)
peptide: GQWHCTTRFPHHTCLYG
modifications: not fully specified; Gd^T-GQWHCTTRFPHHtCLYG
B26: Comp ID 835 (peptide)
peptide: {Gd^T}-DWTCS[dA]DEYTWHCNYE
modifications: disulfide 4-13 (inferred); not fully specified (C-terminus); printed as Gd^T-DWTCSaDEYTWHCNYE; reading uncertain
B27: SEQ ID NO: 107 (peptide)
peptide: YHACYQAGCYIW
modifications: disulfide 4-9 (inferred)
B28: Comp ID 830 (peptide)
peptide: {Gd^T″}-GAWTCSGDEYTWHCNYE
modifications: disulfide 5-14 (inferred)
B29: Comp ID 833 (peptide)
peptide: {Gd^T″}-GQWTCSGDEYTWACNYE
modifications: disulfide 5-14 (inferred)
B30: Comp ID 845 (peptide)
peptide: DWTCSGDEYRWHCNYE
modifications: not fully specified; Gd^T-DWTCSGDEYRWHCNYE
B31: SEQ ID NO: 66 (peptide)
peptide: RWSCVLDADGWVCSDN
modifications: disulfide 4-13 (inferred)
B32: SEQ ID NO: 79 (peptide)
peptide: FWTCELDFRQSWYCYDK
modifications: disulfide 4-14 (inferred)
B33: SEQ ID NO: 98 (peptide)
peptide: WQVCADSPGVITYCYTY
modifications: disulfide 4-14 (inferred)
B34: Comp ID 839 (peptide)
peptide: GQWTCSGDEYTWHCAYE
modifications: not fully specified; Gd^T-GQWTCSGDEYTWHCAYE
B35: Comp ID 846 (peptide)
peptide: {Gd^T}-DWTCSGDE[Tyr(3-I)]TWHCNYE
modifications: disulfide 4-13 (inferred); not fully specified (C-terminus); reading uncertain
B36: SEQ ID NO: 87 (peptide)
peptide: HWTCDQAKGGAWSCSST
modifications: disulfide 4-14 (inferred)
B37: Comp ID 842 (peptide)
peptide: DWTCSGDEYTWYCNYE
modifications: not fully specified; Gd^T-DWTCSGDEYTWYCNYE
B38: SEQ ID NO: 86 (peptide)
peptide: SWYCDWDDRKGWMCGSD
modifications: disulfide 4-14 (inferred)
B39: Comp ID 886 (peptide)
peptide: GQWHCTTDFPHXYCLYG
modifications: not fully specified; Gd^T-GQWHCTTDFPH-Dpr-YCLYG
B40: SEQ ID NO: 75 (peptide)
peptide: ERNCVLNDFRWTCGGD
modifications: disulfide 4-13 (inferred)
B41: SEQ ID NO: 65 (peptide)
peptide: KWECVHTKGEWYCETK
modifications: disulfide 4-13 (inferred)
B42: SEQ ID NO: 68 (peptide)
peptide: SWHCFLENHHWMCSDH
modifications: disulfide 4-13 (inferred)
B43: Comp ID 808 (peptide)
peptide: {Gd^T″}-GQWHCTTRFPHHYCLYG[dK](Gd^T″)
modifications: disulfide 5-14 (inferred)
B44: Compound ID 1026 (peptide)
peptide: {Glu‑DTPA‑Gd‑PEG(2O)}-GQWTCSGDEYTWHCNY[dE]-NH2
modifications: disulfide 5-14 (inferred); reading uncertain
B45: Comp ID 832 (peptide)
peptide: {Gd^T″}-GQWTCSGDEYAWHCNY[dE]
modifications: disulfide 5-14 (inferred)
B46: Comp ID 895 (peptide)
peptide: GQWHCTTDYPHHYCLYG
modifications: not fully specified; Gd^T-GQWHCTTD-Y(3-Cl)-PHHYCLYG
B47: Comp ID 848 (peptide)
peptide: DWTCSGDEYTWHCNYE
modifications: not fully specified; Gd^T-DWTCSGDEYTWHCNYE
B48: SEQ ID NO: 80 (peptide)
peptide: SWYCNNGSYGQWHCEHR
modifications: disulfide 4-14 (inferred)
B49: Comp ID 834 (peptide)
peptide: {Gd^T″}-DWTCSGDEYYWHCNYE
modifications: disulfide 4-13 (inferred)
B50: Comp ID 893 (peptide)
peptide: GQWHCTTDFPHHYCLYG
modifications: not fully specified; Gd^T-GQWHCTTD-F(3,4-OMe)-PHHYCLYG

Assays:
Assay in all cases: dried collagen assay
[1] = target: human collagen type I (acid soluble, extracted from placenta, Sigma C7774) (human) (UniProt P02452)
human collagen type I (acid soluble, extracted from placenta, Sigma C7774) (human), sequence (P02452 162-1218 limits assumed, chain 1 of 2): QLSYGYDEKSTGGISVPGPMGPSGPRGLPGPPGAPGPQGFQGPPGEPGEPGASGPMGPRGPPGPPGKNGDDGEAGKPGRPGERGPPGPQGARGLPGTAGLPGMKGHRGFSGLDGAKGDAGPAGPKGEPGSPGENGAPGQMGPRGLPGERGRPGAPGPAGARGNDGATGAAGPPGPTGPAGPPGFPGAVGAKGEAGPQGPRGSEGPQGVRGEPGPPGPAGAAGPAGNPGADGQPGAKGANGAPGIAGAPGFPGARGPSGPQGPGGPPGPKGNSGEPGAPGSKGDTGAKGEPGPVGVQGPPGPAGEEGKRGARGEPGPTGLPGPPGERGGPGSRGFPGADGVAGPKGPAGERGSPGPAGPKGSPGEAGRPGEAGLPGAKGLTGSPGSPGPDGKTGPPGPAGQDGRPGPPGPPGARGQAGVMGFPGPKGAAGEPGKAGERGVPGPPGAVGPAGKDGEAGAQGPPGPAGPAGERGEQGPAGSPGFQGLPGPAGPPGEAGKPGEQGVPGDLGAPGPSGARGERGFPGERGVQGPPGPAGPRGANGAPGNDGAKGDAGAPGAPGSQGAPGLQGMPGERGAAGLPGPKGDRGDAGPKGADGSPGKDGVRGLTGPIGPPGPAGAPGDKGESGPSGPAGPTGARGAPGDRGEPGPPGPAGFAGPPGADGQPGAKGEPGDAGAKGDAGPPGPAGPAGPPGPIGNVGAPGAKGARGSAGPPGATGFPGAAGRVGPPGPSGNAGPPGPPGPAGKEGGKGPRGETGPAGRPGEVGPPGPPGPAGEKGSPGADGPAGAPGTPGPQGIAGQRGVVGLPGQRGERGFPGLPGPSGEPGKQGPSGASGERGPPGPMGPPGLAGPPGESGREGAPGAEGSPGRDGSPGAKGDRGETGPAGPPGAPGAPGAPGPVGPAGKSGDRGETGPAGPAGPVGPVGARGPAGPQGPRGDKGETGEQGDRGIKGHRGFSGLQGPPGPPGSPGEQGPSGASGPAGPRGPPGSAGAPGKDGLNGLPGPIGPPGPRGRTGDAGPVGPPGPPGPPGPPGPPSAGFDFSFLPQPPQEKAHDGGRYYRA
human collagen type I (acid soluble, extracted from placenta, Sigma C7774) (human), sequence (P08123 80-1119 limits assumed, chain 2 of 2, further chain): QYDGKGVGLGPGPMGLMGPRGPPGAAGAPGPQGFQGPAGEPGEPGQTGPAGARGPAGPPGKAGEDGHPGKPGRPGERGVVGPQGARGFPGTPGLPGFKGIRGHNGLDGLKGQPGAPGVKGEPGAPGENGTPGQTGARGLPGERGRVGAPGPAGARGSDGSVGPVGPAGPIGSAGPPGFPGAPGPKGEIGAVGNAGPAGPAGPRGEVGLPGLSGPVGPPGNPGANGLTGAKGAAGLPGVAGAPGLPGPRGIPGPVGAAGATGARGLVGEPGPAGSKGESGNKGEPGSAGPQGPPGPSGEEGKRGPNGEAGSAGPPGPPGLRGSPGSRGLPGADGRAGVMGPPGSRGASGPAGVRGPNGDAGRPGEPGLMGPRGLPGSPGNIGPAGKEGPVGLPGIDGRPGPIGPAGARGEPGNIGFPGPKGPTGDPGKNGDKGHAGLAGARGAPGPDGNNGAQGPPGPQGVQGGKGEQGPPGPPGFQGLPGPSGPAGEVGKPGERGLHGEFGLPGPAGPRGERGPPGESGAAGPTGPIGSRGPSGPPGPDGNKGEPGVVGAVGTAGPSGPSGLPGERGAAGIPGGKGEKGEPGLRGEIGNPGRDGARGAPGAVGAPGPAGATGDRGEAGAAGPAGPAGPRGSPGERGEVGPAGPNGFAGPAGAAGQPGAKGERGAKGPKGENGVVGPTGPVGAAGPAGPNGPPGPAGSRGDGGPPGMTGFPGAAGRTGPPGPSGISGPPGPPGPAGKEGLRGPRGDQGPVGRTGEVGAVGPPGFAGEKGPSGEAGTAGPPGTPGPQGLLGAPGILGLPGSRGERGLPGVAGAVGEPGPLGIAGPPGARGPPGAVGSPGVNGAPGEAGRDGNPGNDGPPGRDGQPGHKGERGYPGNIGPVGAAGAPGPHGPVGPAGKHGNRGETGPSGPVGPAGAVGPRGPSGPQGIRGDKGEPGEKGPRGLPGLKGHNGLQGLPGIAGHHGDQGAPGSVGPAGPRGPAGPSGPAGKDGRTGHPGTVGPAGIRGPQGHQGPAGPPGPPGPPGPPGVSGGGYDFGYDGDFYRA

[2] = target: rat collagen (acid soluble, type I, rat tail, Upstate 08-115) (rat) (UniProt P02454)
rat collagen (acid soluble, type I, rat tail, Upstate 08-115) (rat), sequence (P02454 152-1207 limits assumed, chain 1 of 2): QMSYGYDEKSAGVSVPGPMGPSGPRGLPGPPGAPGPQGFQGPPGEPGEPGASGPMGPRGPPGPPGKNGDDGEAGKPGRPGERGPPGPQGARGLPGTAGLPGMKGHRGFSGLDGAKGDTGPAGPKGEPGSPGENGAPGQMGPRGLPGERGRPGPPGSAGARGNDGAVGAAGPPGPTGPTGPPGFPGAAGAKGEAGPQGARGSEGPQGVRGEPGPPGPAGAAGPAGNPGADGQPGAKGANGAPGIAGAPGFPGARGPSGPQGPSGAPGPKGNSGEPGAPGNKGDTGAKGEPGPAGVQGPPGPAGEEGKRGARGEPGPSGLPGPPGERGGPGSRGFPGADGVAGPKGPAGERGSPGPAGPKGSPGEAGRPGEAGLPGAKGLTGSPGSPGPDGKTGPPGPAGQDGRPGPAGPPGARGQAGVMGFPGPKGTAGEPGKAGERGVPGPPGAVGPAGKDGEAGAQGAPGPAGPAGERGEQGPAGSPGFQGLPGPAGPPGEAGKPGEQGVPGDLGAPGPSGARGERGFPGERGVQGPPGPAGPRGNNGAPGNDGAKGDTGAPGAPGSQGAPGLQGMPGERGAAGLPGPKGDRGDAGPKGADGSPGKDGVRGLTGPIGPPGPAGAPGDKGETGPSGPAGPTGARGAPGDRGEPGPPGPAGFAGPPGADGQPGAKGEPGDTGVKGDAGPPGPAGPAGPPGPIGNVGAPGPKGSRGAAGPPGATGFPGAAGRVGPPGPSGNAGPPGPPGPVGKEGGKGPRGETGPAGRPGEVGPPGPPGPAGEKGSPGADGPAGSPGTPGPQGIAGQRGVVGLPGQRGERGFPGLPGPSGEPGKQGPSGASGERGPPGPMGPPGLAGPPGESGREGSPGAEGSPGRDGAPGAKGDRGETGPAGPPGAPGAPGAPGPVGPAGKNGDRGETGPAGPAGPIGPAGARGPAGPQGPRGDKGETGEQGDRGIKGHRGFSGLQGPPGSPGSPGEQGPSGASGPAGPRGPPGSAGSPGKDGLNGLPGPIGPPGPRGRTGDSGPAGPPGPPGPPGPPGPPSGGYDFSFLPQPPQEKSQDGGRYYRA
rat collagen (acid soluble, type I, rat tail, Upstate 08-115) (rat), sequence (P02466 86-1125 limits assumed, chain 2 of 2, further chain): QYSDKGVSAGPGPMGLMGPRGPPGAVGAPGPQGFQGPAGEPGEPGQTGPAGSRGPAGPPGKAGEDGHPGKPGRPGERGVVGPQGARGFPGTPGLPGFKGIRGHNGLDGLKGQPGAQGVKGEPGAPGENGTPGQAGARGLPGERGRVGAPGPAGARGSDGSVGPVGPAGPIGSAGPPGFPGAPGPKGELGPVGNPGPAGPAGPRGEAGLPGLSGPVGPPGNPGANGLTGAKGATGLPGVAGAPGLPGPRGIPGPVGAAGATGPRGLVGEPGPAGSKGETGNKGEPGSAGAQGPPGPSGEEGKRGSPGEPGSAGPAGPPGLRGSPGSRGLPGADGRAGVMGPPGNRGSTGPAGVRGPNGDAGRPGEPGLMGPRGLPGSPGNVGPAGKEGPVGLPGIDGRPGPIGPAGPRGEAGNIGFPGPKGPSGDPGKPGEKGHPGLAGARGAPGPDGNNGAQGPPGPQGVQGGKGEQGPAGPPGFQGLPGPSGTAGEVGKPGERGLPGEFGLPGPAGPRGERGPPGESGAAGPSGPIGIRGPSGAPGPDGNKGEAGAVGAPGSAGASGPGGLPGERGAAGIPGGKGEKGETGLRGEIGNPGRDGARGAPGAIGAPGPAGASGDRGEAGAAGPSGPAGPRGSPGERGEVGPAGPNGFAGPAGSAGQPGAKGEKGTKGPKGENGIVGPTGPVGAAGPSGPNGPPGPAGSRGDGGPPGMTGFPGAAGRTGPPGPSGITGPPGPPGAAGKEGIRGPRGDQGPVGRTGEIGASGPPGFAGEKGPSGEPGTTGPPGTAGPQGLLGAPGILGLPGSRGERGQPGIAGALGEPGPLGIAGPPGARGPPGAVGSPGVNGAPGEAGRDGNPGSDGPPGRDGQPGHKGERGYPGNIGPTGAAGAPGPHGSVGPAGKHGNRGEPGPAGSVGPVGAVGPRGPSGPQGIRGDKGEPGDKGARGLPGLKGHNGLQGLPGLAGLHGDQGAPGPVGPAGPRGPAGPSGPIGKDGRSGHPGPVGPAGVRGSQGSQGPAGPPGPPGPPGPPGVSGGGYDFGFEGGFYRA

[3] = target: T1, human collagen type I (acid soluble, extracted from placenta, Sigma C7774) (human, UniProt P02452 162-1218; P08123 80-1119)
T1 construct: gelled and dried as a fibril film in the assay; also called dried human collagen; h-Collagen
T1 sequence (P02452 162-1218 limits assumed, chain 1 of 2): as the sequence (P02452 162-1218 limits assumed, chain 1 of 2) above
T1 sequence (P08123 80-1119 limits assumed, chain 2 of 2): as the sequence (P08123 80-1119 limits assumed, chain 2 of 2, further chain) above
Method: An additional 90 μL is reserved in a HPLC glass vial as a measure of the total concentration.

Row | Binder | % bound [1] [%] | % bound [2] [%] | % bound [3] [%]
1 | B1 | 8 | 2 | 
2 | B2 | 27 |  | 
3 | B3 | 8 |  | 
4 | B4 |  | 8 | 
5 | B5 | 5 | 12 | 
6 | B6 | 3 |  | 
7 | B7 | 6 |  | 
8 | B8 | 9 |  | 
9 | B9 |  | 9 | 
10 | B10 | 12 |  | 
11 | B11 | 12 |  | 
12 | B12 |  | 12 | 
13 | B13 |  | 8 | 
14 | B14 |  | 3 | 
15 | B15 | 15 | 3 | 
16 | B16 | 20 |  | 
17 | B17 | 7 |  | 
18 | B18 | 7 |  | 
19 | B19 | 16 | 7 | 
20 | B20 | 2 |  | 
21 | B21 | 13 | 8 | 
22 | B22 | 7 |  | 
23 | B23 | 6 |  | 
24 | B24 | 5 |  | 
25 | B25 | 6 |  | 

Row | Binder | % bound [1] [%] | % bound [2] [%] | % bound [3] [%]
26 | B26 | 17 | 9 | 
27 | B27 |  | 6 | 9
28 | B28 | 26 | 11 | 
29 | B29 | 13 | 4 | 
30 | B30 |  | 10 | 
31 | B31 | 6 |  | 
32 | B32 | 8 |  | 
33 | B33 | 5 |  | 
34 | B34 |  | 11 | 
35 | B35 |  | 9 | 
36 | B36 |  |  | 1
37 | B37 | 23 | 9 | 
38 | B38 |  |  | 2
39 | B39 | 8 |  | 
40 | B40 | 10 |  | 
41 | B41 | 7 |  | 
42 | B42 | 5 |  | 
43 | B43 | 25 |  | 
44 | B44 |  | 5 | 
45 | B45 | 12 | 4 | 
46 | B46 | 7 |  | 
47 | B47 |  | 9 | 
48 | B48 | 6 |  | 
49 | B49 | 22 | 9 | 
50 | B50 | 4 | 2 | 
